Measurements published in the supplement of paper PMC10126150.
± gives the standard deviation of the averaged measurements.

What follows are sequences tested on ATP (assay: switch fluorescence ratio, 500 uM ATP over buffer (Cy3 cluster intensity, sum of 5 cycles each) (fold (ratio)); higher = stronger signal-on switching upon ATP binding; sequences stand for … in TCGTCGGCAGCGTCAGATGTGTATAAGAGACAGTTTTTTTTTTTTTTTTTTTTTTTTT…TC). Conditions: aptamer strand: ATP DNA aptamer (quencher-CACCTGGGGGAGTATTGCGGAGGAAGG + anchor), 100 nM annealed; ATP concentration: 500 uM.
How it was run: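 Per cluster, summed Cy3 intensity from the target cycles was divided by that from the buffer cycles to give the fluorescence ratio, then averaged per switch-domain sequence. Clusters outside 100-1000 RFU were excluded. The Cy3-labelled switching-strand clusters, on a modified Illumina MiSeq flow-cell, were annealed to 100 nM quencher-labelled ATP aptamer and imaged in selection buffer, then after 15 min with 500 uM ATP at 22 °C, for five cycles with NaOH stripping and re-annealing between them.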
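Further: ATP exposure 15 min at 22 °C before imaging.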

| Sequence | switch fluorescence ratio |
| --- | --- |
| CAAGTAAAAG | 1.01 ± 0.011 |
| CAAGTAGACC | 0.997 ± 0.13 |
| CAAGTAGAGT | 0.9953 ± 0.0059 |
| CAAGTAGGTG | 1.03 ± 0.015 |
| CAAGTCGTTT | 1.017 ± 0.0023 |
| CAAGTCTATG | 0.973 ± 0.036 |
| CAAGTGAATG | 1.01 ± 0.017 |
| CAAGTGCTTG | 1.03 ± 0.014 |
| CAAGTGGCGG | 0.969 ± 0.016 |
| CAAGTGGGGG | 1.02 ± 0.038 |
| CAAGTTAATG | 0.97 ± 0.041 |
| CAAGTTATGT | 1 ± 0.044 |
| CAAGTTGTTT | 0.996 ± 0.021 |
| CAAGTTTACC | 1.037 ± 0.0023 |
| CAATAAATAG | 1.005 ± 0.006 |
| CAATAAATAT | 0.97 ± 0.032 |
| CAATAAGAGC | 1.09 ± 0.029 |
| CAATAATGTA | 1.03 ± 0.051 |
| CAATACTAAC | 1.32 ± 0.037 |
| CAATAGAGGG | 0.991 ± 0.033 |
| CAATAGCGGT | 1.05 ± 0.02 |
| CAATATCTCC | 2.29 ± 0.16 |
| CAATATTACT | 1.01 ± 0.042 |
| CAATATTCTT | 1.02 ± 0.027 |
| CAATATTTTT | 1 ± 0.015 |

| Sequence | switch fluorescence ratio |
| --- | --- |
| CAATCTTGGA | 1 ± 0.012 |
| CAATGAGTAT | 1.011 ± 0.003 |
| CAATGCGACA | 1.39 ± 0.078 |
| CAATGGGACC | 1.011 ± 0.0013 |
| CAATGGGGGA | 1.007 ± 0.0018 |
| CAATGGGTAC | 0.969 ± 0.024 |
| CAATGTCCCG | 0.9985 ± 0.0041 |
| CAATGTGACG | 1.03 ± 0.052 |
| CAATGTGGAG | 0.992 ± 0.055 |
| CAATGTTTGC | 1.002 ± 0.0083 |
| CAATTATTTT | 1.02 ± 0.027 |
| CAATTCGATA | 1.02 ± 0.025 |
| CAATTCGTTA | 1.01 ± 0.0035 |
| CAATTGCATC | 1.02 ± 0.014 |
| CAATTGGATG | 1 ± 0.073 |
| CAATTGGCGT | 0.967 ± 0.021 |
| CAATTGGGTG | 1.06 ± 0.022 |
| CAATTGGTTT | 0.997 ± 0.016 |
| CAATTTCAGC | 0.999 ± 0.025 |
| CAATTTCGGT | 0.996 ± 0.039 |
| CAATTTGGGG | 0.994 ± 0.02 |
| CAATTTTCGG | 0.989 ± 0.022 |
| CACAAGGGCG | 0.94 ± 0.02 |
| CACAAGTTTT | 1.02 ± 0.03 |
| CACACAAAAT | 0.977 ± 0.014 |

| Sequence | switch fluorescence ratio |
| --- | --- |
| CACACGTTTT | 1.02 ± 0.013 |
| CACAGCTCAC | 1.79 ± 0.065 |
| CACATGTTAT | 1.0197 ± 0.00089 |
| CACATTAACT | 1.094 ± 0.0047 |
| CACATTACAT | 1.28 ± 0.1 |
| CACCATGTTC | 0.989 ± 0.032 |
| CACCCCGCAC | 3.46 ± 0.48 |
| CACCTGATGG | 0.997 ± 0.025 |
| CACCTGTTGC | 1.02 ± 0.011 |
| CACCTTAATT | 1.037 ± 0.0075 |
| CACCTTACGT | 1.45 ± 0.079 |
| CACGAAGGTG | 1.16 ± 0.032 |
| CACGACTCGT | 1 ± 0.011 |
| CACGAGAACT | 1.1 ± 0.024 |
| CACGAGGGGA | 1.02 ± 0.057 |
| CACGAGTTAG | 1.0257 ± 0.00055 |
| CACGATTTTT | 0.988 ± 0.022 |
| CACGCGGGGA | 1.01 ± 0.041 |
| CACGCTTTTT | 1.15 ± 0.23 |
| CACGGACAGC | 1.41 ± 0.025 |
| CACGGACTGC | 1.42 ± 0.07 |
| CACGGAGGGG | 0.9875 ± 0.0095 |
| CACGGCTCGC | 1.04 ± 0.015 |
| CACGGCTTGG | 0.9744 ± 0.0044 |
| CACGGGATGG | 1.05 ± 0.026 |

| Sequence | switch fluorescence ratio |
| --- | --- |
| CACGGGGAAG | 1.02 ± 0.047 |
| CACGGGGGA | 0.974 ± 0.025 |
| CACGGGGGGG | 1.02 ± 0.025 |
| CACGGGTATT | 1.013 ± 0.0028 |
| CACGGGTGGC | 1.152 ± 0.011 |
| CACGGGTTCC | 1.03 ± 0.041 |
| CACGGTTGTT | 1.015 ± 0.0074 |
| CACGGTTTGT | 0.985 ± 0.018 |
| CACGTACGGG | 1.59 ± 0.089 |
| CACGTGGGGG | 1.007 ± 0.006 |
| CACGTGTGGT | 0.988 ± 0.036 |
| CACTACGGGA | 1.05 ± 0.012 |
| CACTAGACGG | 1.45 ± 0.064 |
| CACTAGAGGA | 1.022 ± 0.0057 |
| CACTAGGCGG | 1.0232 ± 0.00067 |
| CACTGATCCT | 1.032 ± 0.0032 |
| CACTGCCTGC | 1.08 ± 0.036 |
| CACTGGCCGA | 1.035 ± 0.01 |
| CACTGGGGGT | 1.03 ± 0.019 |
| CACTGGGGTT | 0.988 ± 0.017 |
| CACTGTATCG | 1.13 ± 0.063 |
| CACTGTGGGT | 0.9744 ± 0.0046 |
| CACTTTACTT | 1.28 ± 0.072 |
| CACTTTCATG | 1.013 ± 0.0021 |
| CACTTTGGGG | 0.971 ± 0.0062 |
